Data published in patent US20240409629A1 (CHIA TAI TIANQING PHARMACEUTICAL GROUP, published 2024).
Numbering of substitutions follows the chain as printed. Where two headings read alike, the source gives them in different places. Blank lines part the entries; values can stand above or below the binder they belong to.

Tests used:
human CLDN18.2 [1] = molecular target: human CLDN18.2 (human); experiment: cell-based or functional assay
human CLDN18.1 [2] = molecular target: T1, human CLDN18.1 (human, UniProt P56856 1-261); experiment: FACS, U2OS-CLDN18.1 cells, antibody at 200 nM
T1 construct: also called claudin18.1
Description: (§1) Based on the FACS method, the binding activity of anti-CLDN18.2 antibodies for the cell line U2OS-CLDN18.1 overexpressing CLDN18.1 (SEQ ID NO: 2) was analyzed. The cell concentration was adjusted with PBS, and the U2OS-CLDN18.1 cells were added to a 96-well plate at 3×10⁵ cells/well, then the test antibodies were added to each well of the 96-well plate, the final concentration of the antibody was 200 nM, and the mixture was incubated at 4° C. for 60 min. The supernatant was discarded, the cells were washed 3 times with pre-cooled PBS buffer, PE-Goat Anti-Human IgG Fcγ (Jackson immunoresearch, Cat. No. 109-116-170) diluted at 1:200 was added at 100 μL/well, and the mixture was incubated at 4° C. for 30 min. Cells were washed 3 times with pre-cooled PBS buffer and resuspended in 100 μL of PBS buffer, and then the fluorescence signals were detected using a flow cytometer (Sartorius, iQUE3). The nonspecific binding of the anti-CLDN18.2 antibodies for U2OS-CLDN18.1 cells was measured by mean fluorescence intensity (MFI) of staining. The IgG1 isotype control antibody (prepared in-house, with the heavy and light chain amino acid sequences as set forth in SEQ ID NOs: 67 and 68 in the present disclosure) was used as the control, and 2-fold the IgG1 isotype control antibody was used as the benchmark, thus determining the presence or absence of nonspecific binding.

human CLDN18.2 [3] = molecular target: T2, human CLDN18.2 (human); experiment: FACS, NUGC-4 cells (natural CLDN18.2)
T2 construct: also called claudin18.2
Description: (§2) Based on the FACS method, the binding activity of anti-CLDN18.2 humanized antibodies for the cell lines KATOIII (Cell Bank of the Chinese Academy of Sciences) and NUGC-4 (Cell Bank of the Chinese Academy of Sciences) naturally expressing CLDN18.2 was analyzed. […] See Example 3 for the specific method.

human CLDN18.2 [4] = molecular target: T2, human CLDN18.2; experiment: cell-based or functional assay; remark: listed apart in the source
human CLDN18.2 [5] = molecular target: T2, human CLDN18.2; experiment: cell-based or functional assay; remark: listed apart in the source
human CLDN18.2 [6] = molecular target: T2, human CLDN18.2; experiment: cell-based or functional assay; remark: listed apart in the source
human CLDN18.2 [7] = molecular target: T2, human CLDN18.2; experiment: FACS, KATOIII cells (natural CLDN18.2)
Description: (§3) Based on the FACS method, the binding activity of anti-CLDN18.2 antibodies for the cell line U2OS-CLDN18.2 overexpressing CLDN18.2 and the cell lines KATOIII (Cell Bank of the Chinese Academy of Sciences) and NUGC-4 (Cell Bank of the Chinese Academy of Sciences) naturally expressing CLDN18.2 was analyzed.
(§4) The cell concentration was adjusted with PBS, and cells (U2OS-CLDN18.2, KATOIII, or NUGC-4 cells) were added to a 96-well plate at 3×10⁵ cells/well, then the test antibodies at different concentrations were added to each well of the 96-well plate, and the mixture was incubated at 4° C. for 60 min. […] The supernatant was discarded, the cells were washed 3 times with pre-cooled PBS buffer, PE-Goat Anti-Human IgG Fcγ (Jackson immunoresearch, Cat. No. 109-116-170) diluted at 1:200 was added at 100 μL/well, and the mixture was incubated at 4° C. for 30 min. Cells were washed 3 times with pre-cooled PBS buffer and resuspended in 100 μL of PBS buffer, and then the fluorescence signals were detected using a flow cytometer (Sartorius, iQUE3). The binding ability of the anti-CLDN18.2 antibodies for CLDN18.2 was measured by mean fluorescence intensity (MFI) of staining.

human CLDN18.1 [8] = molecular target: T1, human CLDN18.1; experiment: FACS, U2OS-CLDN18.1 cells; MFI against 2-fold the IgG1 isotype control
Description: as §1

human CLDN18.2 [9] = molecular target: T2, human CLDN18.2; experiment: cell-based or functional assay; remark: listed apart in the source
human CLDN18.2 [10] = molecular target: T2, human CLDN18.2; experiment: FACS, KATOIII cells (natural CLDN18.2); remark: listed apart in the source
Description: as §2

human CLDN18.2 [11] = molecular target: T2, human CLDN18.2; experiment: FACS, U2OS-CLDN18.2 cells
Description: as §3, §4

human CLDN18.2 [12] = molecular target: T2, human CLDN18.2; experiment: FACS, NUGC-4 cells (natural CLDN18.2); remark: listed apart in the source
Description: as §3, §4

human CLDN18.2 [13] = molecular target: T2, human CLDN18.2; experiment: cell-based or functional assay; remark: listed apart in the source
human CLDN18.2 [14] = molecular target: T2, human CLDN18.2; experiment: FACS, NUGC-4 cells (natural CLDN18.2); remark: listed apart in the source
Description: as §3, §4

human CLDN18.2 [15] = molecular target: T2, human CLDN18.2; experiment: FACS, KATOIII cells (natural CLDN18.2); remark: listed apart in the source
Description: as §3, §4

human CLDN18.2 [16] = molecular target: T2, human CLDN18.2; experiment: FACS, KATOIII cells (natural CLDN18.2); remark: listed apart in the source
Description: as §2

human CLDN18.2 [17] = molecular target: T2, human CLDN18.2; experiment: FACS, NUGC-4 cells (natural CLDN18.2); remark: listed apart in the source
Description: as §2

human CLDN18.2 [18] = molecular target: T2, human CLDN18.2; experiment: cell-based or functional assay; remark: listed apart in the source
human CLDN18.2 [19] = molecular target: T2, human CLDN18.2; experiment: cell-based or functional assay; remark: listed apart in the source
human CLDN18.2 [20] = molecular target: T2, human CLDN18.2; experiment: FACS, U2OS-CLDN18.2 cells; remark: listed apart in the source
Description: as §3, §4

CDC EC50, NIH-3T3-CLDN18.2 target cells (human CLDN18.2 [1]): 0.27 nM
MFI (human CLDN18.1 [2]): 7560
EC50 (human CLDN18.2 [3]): 44.1 nM
CDC EC50, KATOIII target cells (human CLDN18.2 [4]): 0.112 nM
CDC EC50, U2OS-CLDN18.2 target cells (human CLDN18.2 [4]): 1.58 nM
ADCC EC50, PBMC effector cells, KATOIII target cells (human CLDN18.2 [5]): 0.82 nM
ADCC EC50, PBMC effector cells, NIH-3T3-CLDN18.2 target cells (human CLDN18.2 [5]): 0.54 nM
ADCC EC50, PBMC effector cells, NUGC-4 target cells (human CLDN18.2 [5]): 3.26 nM
ADCC EC50, Jurkat-CD16a v158-NFAT-luciferase effector cells, KATOIII target cells (human CLDN18.2 [6]): 0.03 nM
ADCC EC50, Jurkat-CD16a v158-NFAT-luciferase effector cells, NUGC-4 target cells (human CLDN18.2 [6]): 0.121 nM
ADCC EC50, Jurkat-CD16a v158-NFAT-luciferase effector cells, U2OS-CLDN18.2 target cells (human CLDN18.2 [6]): 0.028 nM
EC50 (human CLDN18.2 [7]): 3.31 nM
binding result (human CLDN18.1 [8]): no binding (tested: 200 nM)
ADCC EC50, PBMC effector cells, KATOIII target cells (human CLDN18.2 [9]): 38.4 nM
ADCC EC50, PBMC effector cells, NUGC-4 target cells (human CLDN18.2 [9]): 0.44 nM
EC50 (human CLDN18.2 [10]): 6.63 nM
EC50 (human CLDN18.2 [11]): 7.78 nM
EC50 (human CLDN18.2 [12]): 21.2 nM
ADCC EC50, Jurkat-CD16a v158-NFAT-luciferase effector cells, KATOIII target cells (human CLDN18.2 [13]): 0.043 nM
ADCC EC50, Jurkat-CD16a v158-NFAT-luciferase effector cells, U2OS-CLDN18.2 target cells (human CLDN18.2 [13]): 0.018 nM
B1: chimeric antibody xi28G3 (antibody, human IgG1, kappa, V domains shown)
VH: EIQLQQTGPELVKPGASVTISCKTSGYSFTDYLMLWVKQSHGKSLEWIGNINPYYGRTTYNLKFKGKATLTVDRSSSTAYMQLNSLTSEDSAVYYCARDGYSLRNAMDYWGQGTSVTVSS
VL: DIVMTQSPYSLSVSTGEKVTMSCKSSQSLFNSGNQKNYLAWYQQKPGQPPKLLIYGASTRESGVPDRFTGSGSGTDFTLTISSVQAEDLALYYCQNAHSYPYTFGGGTKLEIKR
notes: Mouse variable regions on human IgG1/kappa; defucosylated, expressed in FUT8-knockout CHO-S cells; also called chimeric 28G3
ADCC Maximum killing (%), PBMC effector cells, KATOIII target cells (human CLDN18.2 [5]): 29.9%
ADCC Maximum killing (%), PBMC effector cells, NIH-3T3-CLDN18.2 target cells (human CLDN18.2 [5]): 47%
ADCC Maximum killing (%), PBMC effector cells, NUGC-4 target cells (human CLDN18.2 [5]): 22.5%
ADCC Maximum killing (%), PBMC effector cells, KATOIII target cells (human CLDN18.2 [9]): 76.8%
ADCC Maximum killing (%), PBMC effector cells, NUGC-4 target cells (human CLDN18.2 [9]): 43.3%

MFI (human CLDN18.1 [2]): 7070
EC50 (human CLDN18.2 [14]): 12.5 nM
EC50 (human CLDN18.2 [15]): 5.97 nM
CDC EC50, KATOIII target cells (human CLDN18.2 [4]): 0.127 nM
CDC EC50, U2OS-CLDN18.2 target cells (human CLDN18.2 [4]): 1.07 nM
ADCC EC50, Jurkat-CD16a v158-NFAT-luciferase effector cells, KATOIII target cells (human CLDN18.2 [6]): 0.03 nM
ADCC EC50, Jurkat-CD16a v158-NFAT-luciferase effector cells, NUGC-4 target cells (human CLDN18.2 [6]): 0.147 nM
ADCC EC50, Jurkat-CD16a v158-NFAT-luciferase effector cells, U2OS-CLDN18.2 target cells (human CLDN18.2 [6]): 0.032 nM
EC50 (human CLDN18.2 [16]): 7.02 nM
binding result (human CLDN18.1 [8]): no binding (tested: 200 nM)
EC50 (human CLDN18.2 [17]): 12.5 nM
ADCC EC50, PBMC effector cells, NUGC-4 target cells (human CLDN18.2 [9]): 0.8 nM
ADCC EC50, Jurkat-CD16a v158-NFAT-luciferase effector cells, NIH-3T3-CLDN18.2 target cells (human CLDN18.2 [18]): 0.014 nM
ADCC EC50, Jurkat-CD16a v158-NFAT-luciferase effector cells, NUGC-4 target cells (human CLDN18.2 [18]): ~0.014 nM
CDC EC50, NIH-3T3-CLDN18.2 target cells (human CLDN18.2 [19]): 0.29 nM
EC50 (human CLDN18.2 [20]): 4.47 nM
B2: chimeric antibody xi40F6 (antibody, human IgG1, kappa, V domains shown)
VH: QVQLKESGPGLVAPSQSLSITCTVSGFSLTSYGVYWVRQSPGKGLEWLGVVWAGGNTNYNSALMSRLSISKDNSKSQVFLKMNSLQTDDTAMYYCARDRGRLLAMDYWGQGTSVTVSS
VL: B1 VL with I2V, Y9S, T15A, F30L, L91V, A97D, S99F, Y100F, Y102F, G106S
notes: Mouse variable regions on human IgG1/kappa; defucosylated, expressed in FUT8-knockout CHO-S cells; also called chimeric 40F6
ADCC Maximum killing (%), PBMC effector cells, NUGC-4 target cells (human CLDN18.2 [9]): 45.2%
